The record followed here is article PMC5743843 (Protein Science : A Publication of the Protein Society, 2017).

To fix the notation:
B3: urease accessory protein UreF (natural protein)
chain: MDKGKSVKSTEKSVGMPPKTPKTDNNAHVDNEFLILQVNDAVFPIGSYTHSFGLETYIQQKKVTNKESALEYLKANLSSQFLYTEMLSLKLTYESALQQDLKKILGVEEVIMLSTSPMELRLANQKLGNRFIKTLQAMNELDMGEFFNAYAQKTKDPTHATSYGVFAASLGIELKKALRHYLYAQTSNMVINCVKSVPLSQNDGQKILLSLQSPFNQLIEKTLELDESHLCTASVQNDIKAMQHESLYSRLYMS

For data set [1], the target named is T1, extracellular region of Nectin-Like 2 (UniProt Q9BY67 45-374).
T1 sequence: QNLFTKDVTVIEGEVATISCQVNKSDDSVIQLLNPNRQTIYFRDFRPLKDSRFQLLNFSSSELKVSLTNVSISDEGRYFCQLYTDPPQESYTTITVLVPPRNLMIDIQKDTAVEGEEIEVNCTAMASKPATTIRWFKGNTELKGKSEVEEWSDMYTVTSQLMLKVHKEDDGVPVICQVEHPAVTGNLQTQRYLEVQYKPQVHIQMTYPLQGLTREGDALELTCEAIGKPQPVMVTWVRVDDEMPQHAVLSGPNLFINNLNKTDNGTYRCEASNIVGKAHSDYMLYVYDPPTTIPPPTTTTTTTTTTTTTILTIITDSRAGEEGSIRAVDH
The data set is described as follows: SPR. (In SPR one partner is held on a chip, and binding of the other changes the refractive index at the surface.)

Data set [2] has as its target B3. The data set is described as follows: crystal structure.
The target in data set [3] is T2, urease accessory protein UreH (Helicobacter pylori, UniProt Q09067 1-265).
T2 sequence: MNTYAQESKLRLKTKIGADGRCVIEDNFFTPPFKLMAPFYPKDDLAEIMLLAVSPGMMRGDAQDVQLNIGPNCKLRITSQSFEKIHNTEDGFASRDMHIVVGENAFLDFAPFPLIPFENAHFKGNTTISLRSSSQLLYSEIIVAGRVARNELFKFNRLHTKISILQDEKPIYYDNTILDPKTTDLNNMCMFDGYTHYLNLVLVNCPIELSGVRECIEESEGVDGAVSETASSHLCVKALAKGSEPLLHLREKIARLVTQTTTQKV
The data set is described as follows: crystal structure.

The data set “crystal structure” concerns the molecule itself. Nature of the data set: crystal structure.
In the next data set the target is T3, FtsL (E. coli, UniProt P0AEN4 1-121).
T3 sequence: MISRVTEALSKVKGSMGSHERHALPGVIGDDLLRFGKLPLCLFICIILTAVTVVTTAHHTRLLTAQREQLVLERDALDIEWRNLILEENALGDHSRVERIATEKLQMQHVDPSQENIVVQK
The data set is described as follows: FRET or BRET + other: single molecule photobleaching. For orientation: Bioluminescence resonance energy transfer reports proximity on the nanometre scale.

B1: extracellular region of CRTAM (domain or fragment)
chain: SLTNHTETITVEEGQTLTLKCVTSLRKNSSLQWLTPSGFTIFLNEYPALKNSKYQLLHHSANQLSITVPNVTLQDEGVYKCLHYSDSVSTKEVKVIVLATPFKPILEASVIRKQNGEEHVVLMCSTMRSKPPPQITWLLGNSMEVSGGTLHEFETDGKKCNTTSTLIIHTYGKNSTVDCIIRHRGLQGRKLVAPFRFEDLVTDEETASDALERNSLSSQDPQQPTSTVSVTEDSSTSEIDKEEKEQTTQDPDLTTEANPQYLGLARKKSG
Usually Kd stands for a measure of binding affinity in units of concentration. On to B1, for which the Kd in data set [1] was found to be 37.2 nM.

B2: urease accessory protein UreG (enzyme)
chain: MVKIGVCGPVGSGKTALIEALTRHMSKDYDMAVITNDIYTKEDAEFMCKNSVMPRERIIGVETGGCPHTAIREDASMNLEAVEEMHGRFPNLELLLIESGGDNLSATFNPELADFTIFVIDVAEGDKIPRKGGPGITRSDLLVINKIDLAPYVGADLKVMERDSKKMRGEKPFIFTNIRAKEGLDDVIAWIKRNALLED
With B2, the binding result in data set [2] was “binds”.

On to B3, for which the binding result (in data set [3]; in the data set “crystal structure”) was “binds” in each case.

B4: FtsB (natural protein)
chain: MGKLTLLLLAILVWLQYSLWFGKNGIHDYTRVNDDVAAQQATNAKLKARNDQLFAEIDDLNGGQEALEERARNELSMTRPGETFYRLVPDASKRAQSAGQNNR
In general, stoichiometry N refers to a count of units in the complex or per binding partner. For the molecule B4, the “stoichiometry N” value in the data set with FtsL is 1 FtsB per FtsL.
